The record followed here is patent US20030229005A1 (BIOZYME, published 2003).

Holding throughout (assay): cell-based or functional assay
The target of one test is stromelysin 1 (UniProt P08254 100-477, limits assumed).
The target in a further test is T1, collagenase 1 (UniProt P03956 100-469, limits assumed).
T1 sequence (looked up): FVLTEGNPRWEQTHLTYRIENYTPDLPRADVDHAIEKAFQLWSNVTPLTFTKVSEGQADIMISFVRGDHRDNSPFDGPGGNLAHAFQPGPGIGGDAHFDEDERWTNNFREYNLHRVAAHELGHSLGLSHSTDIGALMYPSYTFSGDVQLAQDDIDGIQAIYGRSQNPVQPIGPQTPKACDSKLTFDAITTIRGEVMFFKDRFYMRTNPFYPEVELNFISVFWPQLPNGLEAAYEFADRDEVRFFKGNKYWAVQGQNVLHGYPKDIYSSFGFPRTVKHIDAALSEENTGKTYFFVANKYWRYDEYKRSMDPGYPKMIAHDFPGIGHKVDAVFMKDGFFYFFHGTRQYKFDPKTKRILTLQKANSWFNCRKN

Another test concerns the target gelatinase B (UniProt P14780 107-707, limits assumed).
The target of a further test is T2, human Gelatinase-A (human, UniProt P08253 110-660, limits assumed).
T2 sequence (looked up): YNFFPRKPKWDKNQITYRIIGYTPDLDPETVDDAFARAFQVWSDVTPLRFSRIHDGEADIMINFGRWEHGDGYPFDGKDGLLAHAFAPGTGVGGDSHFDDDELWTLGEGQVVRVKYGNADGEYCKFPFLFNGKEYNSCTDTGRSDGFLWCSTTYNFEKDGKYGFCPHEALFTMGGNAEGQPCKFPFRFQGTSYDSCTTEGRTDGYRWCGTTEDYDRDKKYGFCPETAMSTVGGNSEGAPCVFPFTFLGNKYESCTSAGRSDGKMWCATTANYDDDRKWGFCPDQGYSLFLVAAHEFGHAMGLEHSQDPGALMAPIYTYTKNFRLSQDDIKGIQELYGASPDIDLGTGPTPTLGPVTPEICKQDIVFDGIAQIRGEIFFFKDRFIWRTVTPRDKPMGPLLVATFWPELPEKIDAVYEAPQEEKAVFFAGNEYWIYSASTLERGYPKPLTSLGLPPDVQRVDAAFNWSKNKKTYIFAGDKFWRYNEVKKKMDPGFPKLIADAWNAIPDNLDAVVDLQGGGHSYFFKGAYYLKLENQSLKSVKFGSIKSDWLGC

*1 amine or outer side, *2 acyl side, *3 side chain or, on linkers, in order; H or OH if unused. [ ]: non-standard residue; d: D form. The star is where a group is joined. Dnp = O=[N+]([O-])c1ccc(*)c([N+](=O)[O-])c1; C(Me) = CSC[C@H](N[*:1])C(=O)[*:2]

Sequence of stromelysin 1 (P08254 100-477 limits assumed): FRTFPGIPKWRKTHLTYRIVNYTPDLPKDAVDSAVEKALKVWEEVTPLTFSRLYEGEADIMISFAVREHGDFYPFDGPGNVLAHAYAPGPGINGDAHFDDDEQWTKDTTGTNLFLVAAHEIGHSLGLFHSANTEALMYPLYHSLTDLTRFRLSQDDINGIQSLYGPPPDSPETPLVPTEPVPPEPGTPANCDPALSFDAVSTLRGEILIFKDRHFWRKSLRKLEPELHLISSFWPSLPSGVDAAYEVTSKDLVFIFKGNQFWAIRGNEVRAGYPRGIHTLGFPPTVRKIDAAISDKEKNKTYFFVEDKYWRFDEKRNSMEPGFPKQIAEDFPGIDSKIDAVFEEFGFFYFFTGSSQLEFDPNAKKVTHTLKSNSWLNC
Sequence of gelatinase B (P14780 107-707 limits assumed): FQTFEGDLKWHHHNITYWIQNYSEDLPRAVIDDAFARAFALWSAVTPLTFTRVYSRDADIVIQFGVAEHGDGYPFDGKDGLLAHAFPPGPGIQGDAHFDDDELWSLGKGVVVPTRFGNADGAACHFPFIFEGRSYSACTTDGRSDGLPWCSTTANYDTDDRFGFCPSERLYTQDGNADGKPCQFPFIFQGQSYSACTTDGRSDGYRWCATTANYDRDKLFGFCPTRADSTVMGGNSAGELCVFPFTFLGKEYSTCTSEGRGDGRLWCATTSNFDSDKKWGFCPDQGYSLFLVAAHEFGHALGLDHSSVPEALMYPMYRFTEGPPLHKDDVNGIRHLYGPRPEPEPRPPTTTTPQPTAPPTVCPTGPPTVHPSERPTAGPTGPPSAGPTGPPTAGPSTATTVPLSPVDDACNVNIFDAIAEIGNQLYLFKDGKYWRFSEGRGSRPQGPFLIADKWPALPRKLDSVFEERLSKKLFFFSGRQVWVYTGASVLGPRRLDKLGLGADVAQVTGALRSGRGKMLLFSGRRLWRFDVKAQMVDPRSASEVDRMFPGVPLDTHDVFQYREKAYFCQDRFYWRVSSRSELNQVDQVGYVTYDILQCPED

B1: Dnp-GPKGMRG-NH2 (peptide)
peptide: Dnp-GPKGMRG-NH2
SMILES: CSCC[C@H](NC(=O)CNC(=O)[C@H](CCCCN)NC(=O)[C@@H]1CCCN1C(=O)CNc1ccc([N+](=O)[O-])cc1[N+](=O)[O-])C(=O)N[C@@H](CCCNC(=N)N)C(=O)NCC(N)=O
For B1, the “Selectivity v. Coll-3” value turned out to be 13200 unitless with stromelysin 1, 1570 unitless with collagenase 1, 3 unitless in the test with gelatinase B and 7 unitless in the test with human Gelatinase-A.

B2: Dnp-GPYGMRA-NH2 (peptide)
peptide: Dnp-GPYGMRA-NH2
SMILES: CSCC[C@H](NC(=O)CNC(=O)[C@H](Cc1ccc(O)cc1)NC(=O)[C@@H]1CCCN1C(=O)CNc1ccc([N+](=O)[O-])cc1[N+](=O)[O-])C(=O)N[C@@H](CCCNC(=N)N)C(=O)N[C@@H](C)C(N)=O
Consider B2, for which the “Selectivity v. Coll-3” value with stromelysin 1 is 404 unitless; with collagenase 1, 212 unitless; with gelatinase B, 6 unitless; with human Gelatinase-A, 16 unitless.

B3: Dnp-GPLSIQD-NH2 (peptide)
peptide: Dnp-GPLSIQD-NH2
SMILES: CC[C@H](C)[C@H](NC(=O)[C@H](CO)NC(=O)[C@H](CC(C)C)NC(=O)[C@@H]1CCCN1C(=O)CNc1ccc([N+](=O)[O-])cc1[N+](=O)[O-])C(=O)N[C@@H](CCC(N)=O)C(=O)N[C@@H](CC(=O)O)C(N)=O
As to B3, the “Selectivity v. Coll-3” value with stromelysin 1 came out at 590 unitless; with collagenase 1, 45 unitless; in the test with gelatinase B, 6 unitless; with human Gelatinase-A it was 65 unitless.

B4: Dnp-GPAPLHVC(Me)-NH2 (peptide)
peptide: Dnp-GPAPLHV[C(Me)]-NH2
SMILES: CSC[C@H](NC(=O)[C@@H](NC(=O)[C@H](Cc1c[nH]cn1)NC(=O)[C@H](CC(C)C)NC(=O)[C@@H]1CCCN1C(=O)[C@H](C)NC(=O)[C@@H]1CCCN1C(=O)CNc1ccc([N+](=O)[O-])cc1[N+](=O)[O-])C(C)C)C(N)=O
Regarding B4, the “Selectivity v. Coll-3” value came out at 264 unitless in the test with stromelysin 1, 126 unitless in the test with collagenase 1, 11 unitless with gelatinase B and 12 unitless with human Gelatinase-A.

B5: Dnp-GPLGLHVC(Me)-NH2 (peptide)
peptide: Dnp-GPLGLHV[C(Me)]-NH2
SMILES: CSC[C@H](NC(=O)[C@@H](NC(=O)[C@H](Cc1c[nH]cn1)NC(=O)[C@H](CC(C)C)NC(=O)CNC(=O)[C@H](CC(C)C)NC(=O)[C@@H]1CCCN1C(=O)CNc1ccc([N+](=O)[O-])cc1[N+](=O)[O-])C(C)C)C(N)=O
On to B5, for which the “Selectivity v. Coll-3” value is 12700 unitless with stromelysin 1, 182 unitless with collagenase 1, 26 unitless with gelatinase B and 32 unitless with human Gelatinase-A.

B6: Dnp-GPSGIHV-NH2 (peptide)
peptide: Dnp-GPSGIHV-NH2
SMILES: CC[C@H](C)[C@H](NC(=O)CNC(=O)[C@H](CO)NC(=O)[C@@H]1CCCN1C(=O)CNc1ccc([N+](=O)[O-])cc1[N+](=O)[O-])C(=O)N[C@@H](Cc1c[nH]cn1)C(=O)N[C@H](C(N)=O)C(C)C
Regarding B6, the “Selectivity v. Coll-3” value in the test with stromelysin 1 stood at 35700 unitless; in the test with collagenase 1, 1430 unitless; with gelatinase B, 17 unitless; with human Gelatinase-A, 10 unitless.

B7: Dnp-GPKGITS-NH2 (peptide)
peptide: Dnp-GPKGITS-NH2
SMILES: CC[C@H](C)[C@H](NC(=O)CNC(=O)[C@H](CCCCN)NC(=O)[C@@H]1CCCN1C(=O)CNc1ccc([N+](=O)[O-])cc1[N+](=O)[O-])C(=O)N[C@H](C(=O)N[C@@H](CO)C(N)=O)[C@@H](C)O
In the case of B7, the “Selectivity v. Coll-3” value with stromelysin 1 came out at 37000 unitless; in the test with collagenase 1, 548 unitless; with gelatinase B it was 2 unitless; with human Gelatinase-A it was 6 unitless.

B8: Dnp-GPLPLHGC(Me)-NH2 (peptide)
peptide: Dnp-GPLPLHG[C(Me)]-NH2
SMILES: CSC[C@H](NC(=O)CNC(=O)[C@H](Cc1c[nH]cn1)NC(=O)[C@H](CC(C)C)NC(=O)[C@@H]1CCCN1C(=O)[C@H](CC(C)C)NC(=O)[C@@H]1CCCN1C(=O)CNc1ccc([N+](=O)[O-])cc1[N+](=O)[O-])C(N)=O
Turning to B8, the “Selectivity v. Coll-3” value with stromelysin 1 amounted to 986 unitless; with collagenase 1 it was 36 unitless; with gelatinase B, 10 unitless; in the test with human Gelatinase-A, 20 unitless.

B9: Dnp-GPLQFRG-NH2 (peptide)
peptide: Dnp-GPLQFRG-NH2
SMILES: CC(C)C[C@H](NC(=O)[C@@H]1CCCN1C(=O)CNc1ccc([N+](=O)[O-])cc1[N+](=O)[O-])C(=O)N[C@@H](CCC(N)=O)C(=O)N[C@@H](Cc1ccccc1)C(=O)N[C@@H](CCCNC(=N)N)C(=O)NCC(N)=O
For B9, the “Selectivity v. Coll-3” value in the test with stromelysin 1 was 700 unitless; with collagenase 1 it was 3680 unitless; with gelatinase B, 7 unitless; in the test with human Gelatinase-A, 32 unitless.

B10: Dnp-GPHPFRG-NH2 (peptide)
peptide: Dnp-GPHPFRG-NH2
SMILES: N=C(N)NCCC[C@H](NC(=O)[C@H](Cc1ccccc1)NC(=O)[C@@H]1CCCN1C(=O)[C@H](Cc1c[nH]cn1)NC(=O)[C@@H]1CCCN1C(=O)CNc1ccc([N+](=O)[O-])cc1[N+](=O)[O-])C(=O)NCC(N)=O
For B10, the “Selectivity v. Coll-3” value came to 2300 unitless in the test with stromelysin 1, 3350 unitless in the test with collagenase 1, 8 unitless with gelatinase B and 17 unitless with human Gelatinase-A.

B11: Dnp-VTPYNMRG-NH2 (peptide)
peptide: Dnp-VTPYNMRG-NH2
SMILES: CSCC[C@H](NC(=O)[C@H](CC(N)=O)NC(=O)[C@H](Cc1ccc(O)cc1)NC(=O)[C@@H]1CCCN1C(=O)[C@@H](NC(=O)[C@@H](Nc1ccc([N+](=O)[O-])cc1[N+](=O)[O-])C(C)C)[C@@H](C)O)C(=O)N[C@@H](CCCNC(=N)N)C(=O)NCC(N)=O
On to B11, for which the “Selectivity v. Coll-3” value with stromelysin 1 came out at 1000 unitless; with collagenase 1 it was 39 unitless; with gelatinase B, 4 unitless; with human Gelatinase-A, 31 unitless.

B12: Dnp-GPLSFQG-NH2 (peptide)
peptide: Dnp-GPLSFQG-NH2
SMILES: CC(C)C[C@H](NC(=O)[C@@H]1CCCN1C(=O)CNc1ccc([N+](=O)[O-])cc1[N+](=O)[O-])C(=O)N[C@@H](CO)C(=O)N[C@@H](Cc1ccccc1)C(=O)N[C@@H](CCC(N)=O)C(=O)NCC(N)=O
For the molecule B12, the “Selectivity v. Coll-3” value in the test with stromelysin 1 stood at 191 unitless; with collagenase 1, 688 unitless; with gelatinase B, 5 unitless; in the test with human Gelatinase-A, 21 unitless.

B13: Dnp-GPSGIHL-NH2 (peptide)
peptide: Dnp-GPSGIHL-NH2
SMILES: CC[C@H](C)[C@H](NC(=O)CNC(=O)[C@H](CO)NC(=O)[C@@H]1CCCN1C(=O)CNc1ccc([N+](=O)[O-])cc1[N+](=O)[O-])C(=O)N[C@@H](Cc1c[nH]cn1)C(=O)N[C@@H](CC(C)C)C(N)=O
As for B13, the “Selectivity v. Coll-3” value with stromelysin 1 came out at 2040 unitless; with collagenase 1, 3440 unitless; with gelatinase B, 6 unitless; in the test with human Gelatinase-A it was 8 unitless.
